Measured values taken from publication PMC5897841, “Development of a multipurpose scaffold for the display of peptide loops” (Protein Engineering, Design and Selection, 2017).
Bridge positions count the residues as written; N and C are the ends. Ends that are not written are not given here.

Columns and labels:
CK2α kinase [1] = target: T1, CK2α kinase (Homo sapiens, UniProt P68400); experiment: ITC binding of CK2β(186–200) peptide / RAD display to CK2α; conditions: 25°C, 10 mM HEPES pH 7.4, 500 mM NaCl, 0.05% P20, 100 μM titrant into 10 μM CK2α, single titration, ± from fitting, RAD version is cRAD-CK2β(186–200), read-out: Equilibrium dissociation constant (KD), ITC
T1 construct: made in house; host or cells: E. coli BL21(DE3) with pUBS520; pBAT4 plasmid
T1 sequence (P68400 2-329): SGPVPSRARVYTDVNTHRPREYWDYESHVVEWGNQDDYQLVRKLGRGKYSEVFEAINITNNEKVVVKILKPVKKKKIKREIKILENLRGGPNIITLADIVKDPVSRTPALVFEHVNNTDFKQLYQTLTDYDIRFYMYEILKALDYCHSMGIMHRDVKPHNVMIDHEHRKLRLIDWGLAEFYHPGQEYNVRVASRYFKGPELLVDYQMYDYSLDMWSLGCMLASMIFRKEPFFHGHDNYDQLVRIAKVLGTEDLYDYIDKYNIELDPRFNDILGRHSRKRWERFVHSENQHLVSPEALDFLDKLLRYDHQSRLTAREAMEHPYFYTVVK
Protocol: (§1) All ITC experiments were performed on itc200 instrument (GE Healthcare). Prior to ITC titration, proteins and peptides were buffer exchanged into 10 mM HEPES pH 7.4, 500 mM NaCl, 0.05% P20 surfactant. ITC experiments with Aurora Awt kinase were performed in buffer containing 50 mM HEPES pH 7.4, 100 mM Mg(CH3COO)2, 100 mM NaCl, 1 mM ATP, 1 mM DTT, 0.01% v/v P20. […] In the Aurora AD274N and Aurora AWT binding assays, 50 μM solution of the titrant was injected into 5 μM kinase solution in the cell. […] Binding isotherms were fit by non-linear regression using the single-site model provided by ORIGIN software (Origin Lab). The stoichiometry of the interaction (N), equilibrium association constant (KA) and change of enthalpy (ΔH) were floated during the fitting.

CK2α kinase [2] = target: T1, CK2α kinase; experiment: SPR binding of CK2α to immobilized CK2β(186–200) / RAD-CK2β; conditions: Biacore T100, CM5 chip, ligand immobilized via free cysteine (linear peptide with C-terminal Gly-Cys), 25°C, 10 mM HEPES pH 7.4, 500 mM NaCl, 0.05% P20; data at 200 s post-injection; 1:1 steady-state model; ± from fitting; read-out: Equilibrium dissociation constant (KD), SPR steady-state
Protocol: SPR analyses were conducted using a Biacore T100 instrument (GE Healthcare) using CM5 sensor chips to which cRAD display proteins were immobilized through their unique cysteine residues. All coupling reagents were purchased from GE Healthcare: N-ethyl-N′-dimethylaminopropylcarbodiimide (EDC), 2-(2-pyridinyldithio) ethaneamine hydrochloride (PDEA), N-hydroxysuccinimide (NHS). All immobilizations were conducted at 25°C in running buffer 10 mM HEPES pH 7.4, 500 mM sodium chloride, 0.05% P20. Two CM5 sensor chips were used for the experiments. Peptides and RAD scaffold displaying the peptides were covalently immobilized via free cysteine on the sensor surface in cells 2 and 4, respectively. Cells 1 and 3 were derivatized with cysteine only and served as reference surfaces. Active and reference cells were created automatically using the immobilization surface preparation Wizard software. Immobilization levels for cells 2 and 4 ranged from 240 to 400 RU. […] The dissociation step was 180 s after which sensor surfaces were regenerated by injecting 3 M MgCl2 solution 3 times for 30 sat 60 μl/min. […] Aurora A binding to TPX-2 peptide and RAD-TPX-2 were analyzed also using kinetic data with heterogenous ligand model, with data presented in the Supplementary Material.

CK2α kinase [3] = target: T1, CK2α kinase; experiment: Fluorescence anisotropy direct binding of labeled CK2β(186–200) / RAD-CK2β
Protocol: About 100 μg peptide or protein in 500 μl sodium phosphate pH 6.75, 150 mM NaCl were labeled using 30-fold excess of the maleimide dye. The reactions was allowed to proceed for 1 h at room temperature and the Alexa Fluor 488-maleimide was removed by dialysis using 3-kDa molecular weight cut-off membrane against 10 mM Tris pH 8, 250 mM NaCl buffer. Protein and peptide samples were dialyzed for 3 h at room temperature and further purified by SEC using Superdex 75 GL 10/300 or Superdex peptide 10/300 GL column (GE Healthcare). Labeled peptides and proteins were concentrated to 100 μM, flash frozen in liquid nitrogen and stored at −80°C. The concentration of labeled peptide or proteins and degree of labeling was determined by measuring the absorbance at 280 and 495 nm.
(§2) A stock solution of Alexa Fluor 488-labeled peptide or display proteins was diluted in assay buffer to concentration of 20 nM. For both studies, 10 mM HEPES pH 7.4, 500 mM NaCl, 1 mM DTT, 0.05% P20 buffer from was used. […] FA was measured using PheraStar spectrofluorimeter plate reader (BMG Laboratories, Durham, NC) equipped with polarization filters (excitation 485 nm, emission 520 nm). Dissociation constants were calculated in pro Fit (Quantum Soft) by fitting experimental data to 1:1 binding model equation.

CK2α kinase [4] = target: T1, CK2α kinase; experiment: Affinities for CK2α across the experimental techniques (ITC, SPR, FA); format: binding; conditions: read-out: KD range between the different experimental techniques
Protocol: as §1, with “The stoichiometry of the interaction (N), equilibrium association constant (KA) and change of enthalpy (ΔH) were floated during the fitting.” left out
SPR analyses were conducted using a Biacore T100 instrument (GE Healthcare) using CM5 sensor chips to which cRAD display proteins were immobilized through their unique cysteine residues. […] Aurora A binding to TPX-2 peptide and RAD-TPX-2 were analyzed also using kinetic data with heterogenous ligand model, with data presented in the Supplementary Material.
as §2, with “nM.” for “nM. For both studies, 10 mM HEPES pH 7.4, 500 mM NaCl, 1 mM DTT, 0.05% P20 buffer from was used.”

Aurora A = conditions: N-terminal segment of TPX2; ref Anderson et al., 2007; read-out: Affinity of TPX2 for Aurora A; cited from earlier work
Source text: Aurora A kinase plays an important role in the mitotic spindle assembly and is overexpressed in tumor cells ([Bischoff et al., 1998]). It is known to be dramatically activated by TPX2 protein, which binds to the Aurora A catalytic domain and translocates the kinase to the mitotic spindle during mitosis ([Bischoff et al., 1998]; [Kufer et al., 2002]; [Eyers et al., 2003]).

CK2α = target: CK2α; set-up: method as in Raaf et al., 2013; conditions: ref Raaf et al., 2013; cited from earlier work
CK2β/CK2α complex = system: CK2β/CK2α complex; set-up: method as in Laudet et al., 2007; conditions: read-out: IC50, inhibition of CK2β/CK2α complex formation; ref Laudet et al., 2007; cited from earlier work
[5] = target: T2, wild-type Aurora A (Aurora AWT) kinase domain (Homo sapiens, UniProt O14965); experiment: Bio-Layer Interferometry direct binding of Aurora AWT to RAD-TPX2 mutants; conditions: double His-tagged RAD-TPX2 on Anti-Penta-HIS biosensors, 50 mM HEPES pH 7.4, 500 mM NaCl, 100 mM Mg(CH3COO)2, 0.5 mM ATP, 0.5 mM TCEP, 0.05% P20, 1:1 model, read-out: KD, BLI (Fig. 5a)
T2 construct: Aurora A (126-391)WT; made in house; host or cells: E. coli; plasmid pHAT4-LambdaPP
T2 sequence (O14965 126-391): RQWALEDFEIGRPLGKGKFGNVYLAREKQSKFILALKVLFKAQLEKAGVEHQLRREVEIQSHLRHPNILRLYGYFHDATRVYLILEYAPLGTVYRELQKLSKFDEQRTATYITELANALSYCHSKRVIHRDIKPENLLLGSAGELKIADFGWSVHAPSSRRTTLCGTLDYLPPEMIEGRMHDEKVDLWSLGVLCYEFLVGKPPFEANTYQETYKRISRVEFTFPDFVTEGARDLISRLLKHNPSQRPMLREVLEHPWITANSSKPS
Protocol: Octet RED96 (ForteBio) instrument was used for BLI analysis for double His-tagged RAD-TPX2/Aurora AWT interactions. Experiments were performed using Anti-Penta-HIS biosensors (ForteBio), which were regenerated with 10 mM glycine, pH 1.7. IMAC purified RAD proteins displaying wild-type sequence or alanine mutants of the TPX2 were buffer exchanged into 50 mM HEPES pH 7.4, 500 mM NaCl, 100 mM Mg(CH3COO)2, 0.5 mM ATP, 0.5 mM TCEP, 0.05% P20 (assay buffer). For binding assays pre-wet sensors were loaded with double His-tag labeled proteins at 1 μM in assay buffer. Dilution series (from 0 to 500 or 5000 nM) of Aurora AWT kinase construct without His-tag was prepared in the assay buffer and following experimental setup was used for each measurement cycle: regeneration 3 × 5 s, baseline monitoring 120 s, sample loading 200 s, baseline monitoring 150 s, ligand binding (association) 400 s and ligand dissociation 600 s, followed by regeneration and the next cycle. Regenerated Anti-Penta-HIS biosensors were used to perform double referencing. Data was processed using ForteBio Analysis 7.1 software and dissociation constants were calculated in pro Fit (Quantum Soft) by fitting experimental data to 1:1 binding model equation.

CK2β(186–200): synthetic linear peptide, residues 186–200 of human CK2β (RLYGFKIHPMAYQLQ; UniProt P67870 186-200, looked up, fragment)
Kd (CK2α kinase [1]): 138 ± 13 nM | Kd (CK2α kinase [2]): 407 ± 50 nM | Kd (CK2α kinase [3]; fluorescein-labeled linear peptide or Alexa Fluor 488-labeled cRAD-CK2β(186–200), 10 mM HEPES pH 7.4, 500 mM NaCl, 1 mM DTT, 0.05% P20, CK2α 2 nM–2 μM, 15 min room temperature, 1:1 model, ± from fitting, read-out: Equilibrium dissociation constant (KD), FA): 348 ± 27 nM | Kd (CK2α kinase [4]): 138 to 407 nM

TPX2: TPX2 protein, binds Aurora A through its N-terminal segment (LSYSYDAPSDFINFSSLDDEGDTQNIDSWFEEKANLENLKGGGCQM; left off: KSI, end not stated, cleaved)
Kd (Aurora A): 2.3 nM

GCRLYGFKIHGCG (disulfide 2-12 (inferred)) [Pc peptide]
Kd (CK2α): 559 nM | IC50 (CK2β/CK2α complex): 3000 nM

fluorescein labeled linear CK2β peptide: fluorescein labeled linear CK2β(186–200) peptide (RLYGFKIHPMAYQLQ; also: fluorescein label, site not given here; UniProt P67870 186-200, looked up, fragment) [reference compound]
Fold weaker affinity of labeled linear peptide vs RAD display, FA (CK2α kinase [3]; fluorescein-labeled linear CK2β peptide relative to RAD-CK2β display): ~ 3 times

RAD-TPX2(7–43): RAD scaffold (RadA ATPase domain) displaying residues 7–43 of human TPX2
Kd [5]: 46 nM
